Assay [1] deals with T1, recombinant human IL-23R-IgG chimera (human, UniProt Q5VWK5 24-355, glycosylated).
T1 sequence (looked up): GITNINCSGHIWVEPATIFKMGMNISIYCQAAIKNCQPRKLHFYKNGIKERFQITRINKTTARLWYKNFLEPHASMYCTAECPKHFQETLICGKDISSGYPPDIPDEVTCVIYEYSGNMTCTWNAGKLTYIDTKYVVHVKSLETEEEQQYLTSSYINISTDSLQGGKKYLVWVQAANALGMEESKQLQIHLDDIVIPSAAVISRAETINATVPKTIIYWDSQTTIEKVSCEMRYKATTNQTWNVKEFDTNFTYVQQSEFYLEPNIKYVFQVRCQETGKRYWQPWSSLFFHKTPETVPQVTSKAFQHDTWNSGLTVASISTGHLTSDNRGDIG
As to the kind of experiment: SPR. Background: Surface plasmon resonance follows binding to a sensor surface in real time, without labels.

The target of assay [2] is T1, recombinant human IL-23R-IgG chimera. As to the kind of experiment: ELISA. (ELISA stands for enzyme-linked immunosorbent assay.)
In assay [3] the target is T2, H-exIL-23R, recombinant extracellular part of the human IL-23 receptor with N-terminal His6 tag (human, UniProt Q5VWK5 24-350).
T2 sequence (looked up): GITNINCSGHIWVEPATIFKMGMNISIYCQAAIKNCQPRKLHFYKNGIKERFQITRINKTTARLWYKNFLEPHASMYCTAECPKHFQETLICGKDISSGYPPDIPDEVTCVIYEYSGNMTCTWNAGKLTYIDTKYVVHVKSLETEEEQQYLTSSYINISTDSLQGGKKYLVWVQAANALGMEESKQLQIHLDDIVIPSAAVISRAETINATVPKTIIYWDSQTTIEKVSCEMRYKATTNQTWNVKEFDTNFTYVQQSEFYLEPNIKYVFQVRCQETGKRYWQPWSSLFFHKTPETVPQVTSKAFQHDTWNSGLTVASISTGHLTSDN
As to the kind of experiment: ELISA.

B1: His6-REX009-TolA-AVI (designed binder)
chain: His6-LAEAKVLANRELDKYGVSDYYKNRINPACHVLSVKSNIDWILASLP-{TolA-AviTag(biotin)}
modifications: not fully specified
Take B1: the Kd – broadly, a measure of binding affinity in units of concentration – in assay [1] came to 1.3 nM.

B2: DH-MBP-p19, double-His6-MBP-p19 fusion protein with a C-terminal 40 aa solubility-supporting prolongation (ligand, human)
chain: RAVPGGSSPAWTQCQQLSQKLCTLAWSAHPLVGHMDLREEGDEETTNDVPHIQCGDGCDPQGLRDNSQFCLQRIHQGLIFYEKLLGSDIFTGEPSLLPDSPVGQLHASLLGLSQLLQPEGHHWETQQIPSLSPSQPWQRLLLRFKILRSLQAFVAVAARVFAHGAATLSPLEKKTCTSRASSTTTTTTEIRLLTKPERKLSWLLPPLSNN
As to B2, the binding result in assay [2] was “binds”.

B3: His6-REX125-TolA-AVI (designed binder)
chain: His6-LAEAKVLANRELDKYGVSDHYKNWINPARRVRPVKWLIDAILAALP-{TolA-AviTag(biotin)}
modifications: not fully specified
Consider B3, for which the equilibrium dissociation constant (Kd) in assay [1] was roughly 1 nM.

B4: His6-REX128-TolA-AVI (designed binder)
chain: His6-LAEAKVLANRELDKYGVSDRYKNSINRALPVAAVKWALDLILAWLP-{TolA-AviTag(biotin)}
modifications: not fully specified
On to B4, for which the binding result in assay [3] is “binds”.

Source of the values: paper PMC4285857 (Proteins, 2013).
